Data on 21 molecules can be found in patent US9029508 (dated 2015).

To fix the notation:
B1: DVD458 DLL4 arm (antibody, V domains shown)
VH: QVQLVQSGAEVKKPGASVKISCKASGYSFTAYYIHWVKQAPGQGLEWIGYISSYNGATNYNQKFKGRVTFTTDTSTSTAYMELRSLRSDDTAVYYCARDYDYDVGMDYWGQGTLVTVSS
VL: DIVMTQSPDSLAVSLGERATISCRASESVDNYGISFMKWFQQKPGQPPKLLIYAASNQGSGVPDRFSGSGSGTDFTLTISSLQAEDVAVYYCQQSKEVPWTFGGGTKVEIKR
modifications: DVD-Ig inner
B2: DVD445 DLL4 arm (antibody, V domains shown)
VH: QVQLVQSGAEVKKPGASVKISCKASGYSFTAYYIHWVKQAPGQGLEWIGYISSYNGATNYNQKFKGRVTFTTDTSTSTAYMELRSLRSDDTAVYYCARDYDYDVGMDYWGQGTLVTVSS
VL: DIVMTQSPDSLAVSLGERATISCRASESVDNYGISFMKWFQQKPGQPPKLLIYAASNQGSGVPDRFSGSGSGTDFTLTISSLQAEDVAVYYCQQSKEVPWTFGGGTKVEIKR
modifications: DVD-Ig outer
B3: DVD464 DLL4 arm (antibody, V domains shown)
VH: QVQLVQSGAEVKKPGASVKISCKASGYSFTAYYIHWVKQAPGQGLEWIGYISSYNGATNYNQKFKGRVTFTTDTSTSTAYMELRSLRSDDTAVYYCARDYDYDVGMDYWGQGTLVTVSS
VL: DIVMTQSPDSLAVSLGERATISCRASESVDNYGISFMKWFQQKPGQPPKLLIYAASNQGSGVPDRFSGSGSGTDFTLTISSLQAEDVAVYYCQQSKEVPWTFGGGTKVEIKR
modifications: DVD-Ig inner
B4: DVD460 DLL4 arm (antibody, V domains shown)
VH: QVQLVQSGAEVKKPGASVKISCKASGYSFTAYYIHWVKQAPGQGLEWIGYISSYNGATNYNQKFKGRVTFTTDTSTSTAYMELRSLRSDDTAVYYCARDYDYDVGMDYWGQGTLVTVSS
VL: DIVMTQSPDSLAVSLGERATISCRASESVDNYGISFMKWFQQKPGQPPKLLIYAASNQGSGVPDRFSGSGSGTDFTLTISSLQAEDVAVYYCQQSKEVPWTFGGGTKVEIKR
modifications: DVD-Ig inner
B5: DVD461 DLL4 arm (antibody, V domains shown)
VH: QVQLVQSGAEVKKPGASVKISCKASGYSFTAYYIHWVKQAPGQGLEWIGYISSYNGATNYNQKFKGRVTFTTDTSTSTAYMELRSLRSDDTAVYYCARDYDYDVGMDYWGQGTLVTVSS
VL: DIVMTQSPDSLAVSLGERATISCRASESVDNYGISFMKWFQQKPGQPPKLLIYAASNQGSGVPDRFSGSGSGTDFTLTISSLQAEDVAVYYCQQSKEVPWTFGGGTKVEIKR
modifications: DVD-Ig outer
B6: DVD452 DLL4 arm (antibody, V domains shown)
VH: QVQLVQSGAEVKKPGASVKISCKASGYSFTAYYIHWVKQAPGQGLEWIGYISSYNGATNYNQKFKGRVTFTTDTSTSTAYMELRSLRSDDTAVYYCARDYDYDVGMDYWGQGTLVTVSS
VL: DIVMTQSPDSLAVSLGERATISCRASESVDNYGISFMKWFQQKPGQPPKLLIYAASNQGSGVPDRFSGSGSGTDFTLTISSLQAEDVAVYYCQQSKEVPWTFGGGTKVEIKR
modifications: DVD-Ig inner
B7: DVD486 DLL4 arm (antibody)
chain 1: EVQLVESGGGLVQPGGSLRLSCAASGFTFTDNWISWVRQAPGKGLEWVGYISPNSGFTYYADSVKGRFTISADTSKNTAYLQMNSLRAEDTAVYYCARDNFGGYFDYWGQGTLVTVSS
chain 2: DIQMTQSPSSLSASVGDRVTITCRASQDVSTAVAWYQQKPGKAPKLLIYSASFLYSGVPSRFSGSGSGTDFTLTISSLQPEDFATTYYCQQSYTGTVTFGQGTKVEIKR
modifications: DVD-Ig inner
B8: DVD485 DLL4 arm (antibody)
chain 1: EVQLVESGGGLVQPGGSLRLSCAASGFTFTDNWISWVRQAPGKGLEWVGYISPNSGFTYYADSVKGRFTISADTSKNTAYLQMNSLRAEDTAVYYCARDNFGGYFDYWGQGTLVTVSS
chain 2: DIQMTQSPSSLSASVGDRVTITCRASQDVSTAVAWYQQKPGKAPKLLIYSASFLYSGVPSRFSGSGSGTDFTLTISSLQPEDFATTYYCQQSYTGTVTFGQGTKVEIKR
modifications: DVD-Ig outer
B9: DVD468 DLL4 arm (antibody)
chain 1: EVQLVESGGGLVQPGGSLRLSCAASGFTFTDNWISWVRQAPGKGLEWVGYISPNSGFTYYADSVKGRFTISADTSKNTAYLQMNSLRAEDTAVYYCARDNFGGYFDYWGQGTLVTVSS
chain 2: DIQMTQSPSSLSASVGDRVTITCRASQDVSTAVAWYQQKPGKAPKLLIYSASFLYSGVPSRFSGSGSGTDFTLTISSLQPEDFATTYYCQQSYTGTVTFGQGTKVEIKR
modifications: DVD-Ig inner
B10: DVD484 DLL4 arm (antibody)
chain 1: EVQLVESGGGLVQPGGSLRLSCAASGFTFTDNWISWVRQAPGKGLEWVGYISPNSGFTYYADSVKGRFTISADTSKNTAYLQMNSLRAEDTAVYYCARDNFGGYFDYWGQGTLVTVSS
chain 2: DIQMTQSPSSLSASVGDRVTITCRASQDVSTAVAWYQQKPGKAPKLLIYSASFLYSGVPSRFSGSGSGTDFTLTISSLQPEDFATTYYCQQSYTGTVTFGQGTKVEIKR
modifications: DVD-Ig inner
B11: DVD477 DLL4 arm (antibody)
chain 1: EVQLVESGGGLVQPGGSLRLSCAASGFTFTDNWISWVRQAPGKGLEWVGYISPNSGFTYYADSVKGRFTISADTSKNTAYLQMNSLRAEDTAVYYCARDNFGGYFDYWGQGTLVTVSS
chain 2: DIQMTQSPSSLSASVGDRVTITCRASQDVSTAVAWYQQKPGKAPKLLIYSASFLYSGVPSRFSGSGSGTDFTLTISSLQPEDFATTYYCQQSYTGTVTFGQGTKVEIKR
modifications: DVD-Ig outer
B12: DVD470 DLL4 arm (antibody)
chain 1: EVQLVESGGGLVQPGGSLRLSCAASGFTFTDNWISWVRQAPGKGLEWVGYISPNSGFTYYADSVKGRFTISADTSKNTAYLQMNSLRAEDTAVYYCARDNFGGYFDYWGQGTLVTVSS
chain 2: DIQMTQSPSSLSASVGDRVTITCRASQDVSTAVAWYQQKPGKAPKLLIYSASFLYSGVPSRFSGSGSGTDFTLTISSLQPEDFATTYYCQQSYTGTVTFGQGTKVEIKR
modifications: DVD-Ig inner
B13: DVD467 DLL4 arm (antibody)
chain 1: EVQLVESGGGLVQPGGSLRLSCAASGFTFTDNWISWVRQAPGKGLEWVGYISPNSGFTYYADSVKGRFTISADTSKNTAYLQMNSLRAEDTAVYYCARDNFGGYFDYWGQGTLVTVSS
chain 2: DIQMTQSPSSLSASVGDRVTITCRASQDVSTAVAWYQQKPGKAPKLLIYSASFLYSGVPSRFSGSGSGTDFTLTISSLQPEDFATTYYCQQSYTGTVTFGQGTKVEIKR
modifications: DVD-Ig outer
B14: DVD519 DLL4 arm (antibody, V domains shown)
VH: EVQLQQSGPELEKPGASVKISCKASGYSFTGYNMNWVKQSNGKSLEWIGNIDPYFGGTNYNQKFKGKATLTVDKSSSTAYMQLKSLTSEDSAVYYCARNYDYDGGCFDYWGQGTTLTVSS
VL: QAVVTQESALTTSPGETVTLTCRSSTGAVTTSNYANWVQEKPDHLFTGLIGGTNNRAPGVPARFSGSLIGDKAALTITGAQTEDEAIYFCALWYSNHWVFGGGTKLTVLG
modifications: DVD-Ig outer
B15: DVD529 DLL4 arm (antibody, V domains shown)
VH: EVQLQQSGPELEKPGASVKISCKASGYSFTGYNMNWVKQSNGKSLEWIGNIDPYFGGTNYNQKFKGKATLTVDKSSSTAYMQLKSLTSEDSAVYYCARNYDYDGGCFDYWGQGTTLTVSS
VL: QAVVTQESALTTSPGETVTLTCRSSTGAVTTSNYANWVQEKPDHLFTGLIGGTNNRAPGVPARFSGSLIGDKAALTITGAQTEDEAIYFCALWYSNHWVFGGGTKLTVLG
modifications: DVD-Ig outer
B16: DVD512 DLL4 arm (antibody, V domains shown)
VH: EVQLQQSGPELEKPGASVKISCKASGYSFTGYNMNWVKQSNGKSLEWIGNIDPYFGGTNYNQKFKGKATLTVDKSSSTAYMQLKSLTSEDSAVYYCARNYDYDGGCFDYWGQGTTLTVSS
VL: QAVVTQESALTTSPGETVTLTCRSSTGAVTTSNYANWVQEKPDHLFTGLIGGTNNRAPGVPARFSGSLIGDKAALTITGAQTEDEAIYFCALWYSNHWVFGGGTKLTVLG
modifications: DVD-Ig inner
B17: DVD521 DLL4 arm (antibody, V domains shown)
VH: EVQLQQSGPELEKPGASVKISCKASGYSFTGYNMNWVKQSNGKSLEWIGNIDPYFGGTNYNQKFKGKATLTVDKSSSTAYMQLKSLTSEDSAVYYCARNYDYDGGCFDYWGQGTTLTVSS
VL: QAVVTQESALTTSPGETVTLTCRSSTGAVTTSNYANWVQEKPDHLFTGLIGGTNNRAPGVPARFSGSLIGDKAALTITGAQTEDEAIYFCALWYSNHWVFGGGTKLTVLG
modifications: DVD-Ig outer
B18: DVD515 DLL4 arm (antibody, V domains shown)
VH: EVQLQQSGPELEKPGASVKISCKASGYSFTGYNMNWVKQSNGKSLEWIGNIDPYFGGTNYNQKFKGKATLTVDKSSSTAYMQLKSLTSEDSAVYYCARNYDYDGGCFDYWGQGTTLTVSS
VL: QAVVTQESALTTSPGETVTLTCRSSTGAVTTSNYANWVQEKPDHLFTGLIGGTNNRAPGVPARFSGSLIGDKAALTITGAQTEDEAIYFCALWYSNHWVFGGGTKLTVLG
modifications: DVD-Ig outer
B19: DVD497 DLL4 arm (antibody, V domains shown)
VH: EVQLQQSGPELVKPGASVKMSCKASGYTFTSYVINWVKQKPGQGLEWIGLINPYNDGTKYNEKFKVKATLTSDKSSSTAYMELSSLTSEDSAVYYCASYYYGSRYYFDYWGQGTTLTVSS
VL: DIQMTQSSSYLSVSLGGRVTITCKASDHINNWLAWYQQKPGNAPRLLISGATSLETGVPSRFSGSGSGKDYTLSITSLQTEDVATYYCQQYWSIPLTFGAGTKLELKR
modifications: DVD-Ig outer
B20: DVD509 DLL4 arm (antibody, V domains shown)
VH: EVQLQQSGPELVKPGASVKMSCKASGYTFTSYVINWVKQKPGQGLEWIGLINPYNDGTKYNEKFKVKATLTSDKSSSTAYMELSSLTSEDSAVYYCASYYYGSRYYFDYWGQGTTLTVSS
VL: DIQMTQSSSYLSVSLGGRVTITCKASDHINNWLAWYQQKPGNAPRLLISGATSLETGVPSRFSGSGSGKDYTLSITSLQTEDVATYYCQQYWSIPLTFGAGTKLELKR
modifications: DVD-Ig outer
B21: DVD489 DLL4 arm (antibody, V domains shown)
VH: EVQLQQSGPELVKPGASVKMSCKASGYTFTSYVINWVKQKPGQGLEWIGLINPYNDGTKYNEKFKVKATLTSDKSSSTAYMELSSLTSEDSAVYYCASYYYGSRYYFDYWGQGTTLTVSS
VL: DIQMTQSSSYLSVSLGGRVTITCKASDHINNWLAWYQQKPGNAPRLLISGATSLETGVPSRFSGSGSGKDYTLSITSLQTEDVATYYCQQYWSIPLTFGAGTKLELKR
modifications: DVD-Ig outer

This test deals with DLL4 (human, UniProt Q9NR61). As to the kind of experiment: ELISA. On the technique in general: In an ELISA, binding on a coated surface is turned into a signal by an enzyme label.
Sequence of DLL4 (Q9NR61 27-524): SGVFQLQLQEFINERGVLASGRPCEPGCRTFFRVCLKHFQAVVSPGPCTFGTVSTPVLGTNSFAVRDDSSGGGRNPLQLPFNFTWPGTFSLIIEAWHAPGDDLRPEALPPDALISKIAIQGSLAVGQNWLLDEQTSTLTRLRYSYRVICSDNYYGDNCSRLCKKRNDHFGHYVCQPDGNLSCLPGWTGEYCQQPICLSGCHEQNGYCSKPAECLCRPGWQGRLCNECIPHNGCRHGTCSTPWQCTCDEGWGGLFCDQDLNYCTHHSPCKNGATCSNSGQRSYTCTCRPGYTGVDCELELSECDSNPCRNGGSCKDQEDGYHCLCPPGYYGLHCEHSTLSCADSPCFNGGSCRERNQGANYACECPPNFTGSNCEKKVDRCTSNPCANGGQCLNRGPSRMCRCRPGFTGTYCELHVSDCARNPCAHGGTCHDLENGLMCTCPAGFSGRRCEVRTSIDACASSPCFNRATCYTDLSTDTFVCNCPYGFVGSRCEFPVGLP
As a reminder, the EC50 is the concentration at which the effect is half-maximal. Lower therefore signals an effect from little substance. In turn, B1 displayed a half-maximal effective concentration (EC50) of 1.54 nM.
For B2 the value was 0.17 nM; for B3, 0.8 nM.
For B4 the value was 0.64 nM; for B5, 0.52 nM; for B6, 0.34 nM.
Next, B7: 0.59 nM; B8: 1.41 nM.
Regarding B9, a half-maximal response (EC50) required 2.28 nM.
For the molecule B10, the half-maximal effective concentration (EC50) is 1.75 nM.
For B11 the value was 0.69 nM; for B12, 0.19 nM.
Next, B13: 0.54 nM; B14: 1.53 nM.
With B15, the response was half-maximal at 0.1 nM (EC50).
For B16 the value was 1.71 nM.
For B17 the value was 0.26 nM.
For B18 the value was 0.2 nM; for B19, 0.53 nM; for B20, 0.21 nM.
In turn, B21 displayed a concentration for a half-maximal effect (EC50) of 0.62 nM.
